Data on one molecule can be found in patent US11633477B2, “Treatment of cornea using laminin” (KYOTO PREFECTURAL PUBLIC UNIVERSITY CORPORATION, priority 2014, dated 2023).

Test [1] has as its system rabbit bullous keratopathy model. The test can be described thus: Adhesion of injected cells to substrate after 24 hours in rabbit bullous keratopathy model, laminin with ROCK inhibitor. Conditions: average; 24 hours after injection of cultured RCEC into anterior chamber; Y-27632 100 μM in both groups, with or without laminin 511-E8 fragments 2.1 nM. It counts as in vivo. As to the method: A rabbit corneal endothelium was mechanically detached to make a bullous keratopathy model. Adhesion of injected cells to a substrate after 24 hours was compared between individuals injected with cultured rabbit corneal endothelial cells together with a ROCK inhibitor Y-27632 (+) (100 μM) into the anterior chamber and individuals injected with cells together with laminin 511-E8 fragments (2.1 nM) and Y-27632 (+) (100 μM). The rabbit was euthanized after 24 hours. Corneal tissue was extracted and subjected to phalloidin staining to evaluate the morphology and cell count of adhered cells.

Test [2] shares this test system. The test can be described thus: Cultured corneal endothelium transplantation in rabbit bullous keratopathy model using laminin 511-E8 fragment. It is filed as in vivo. As to the method:
A rabbit corneal endothelium was mechanically detached using a 20 gauge silicone needle (Soft Tapered Needle; Inami & Co., Ltd., Tokyo, Japan) to make a bullous keratopathy model. The control group is a produced model that was not injected with cells. The RCEC group was injected with cultured rabbit corneal endothelial cells in the anterior chamber of the produced model and was maintained in a face-down posture for three hours. Further, the RCEC+E8 group was injected with cultured rabbit corneal endothelial cells, together with DMEM containing laminin 511-E8 fragments adjusted to a concentration of 2.1 nM, into the anterior chamber of the produced model and was maintained in a face-down posture for three hours.
The corneal thickness of an individual produced in FIG. 1 was measured sequentially with an ultrasound pachymeter (SP-2000; Tomey, Nagoya, Japan). When unmeasurable, 1200 μm, which is the measurable upper limit value, was used.
The histological examination in FIG. 3 was conducted as follows. The examination was checking normal functioning with immunostaining using Na^+/K^+-ATPase and ZO-1. This is for examining the functions of corneal endothelial cells, pumping function and barrier function. Na^+/K^+-ATPase and ZO-1 indicate normalcy of corneal endothelial cell functions, pumping function and barrier function, respectively. The approach is as follows.
After cells were immobilized, ZO-1 and Na^+/K^+-ATPase were used as function associated markers and immunostaining was applied for observation with a fluorescence microscope. For tissue staining inspection, cornea tissue extracted from a rabbit was immobilized with 4% formaldehyde for 10 minutes at room temperature (RT) and was incubated for 30 minutes with 1% bovine serum albumin (BSA). To find the phenotype of regenerated corneal endothelial tissue, immunohistochemical analysis was performed on an adhesion binding associated protein ZO-1 and pumping function associated protein Na^+/K^+-ATPase. ZO-1 and Na^+/K^+-ATPase were used as markers associated with cell functions. ZO-1 and Na^+/K^+-ATPase were stained using 1:200 dilution of ZO-1 polyclonal antibodies (Zymed Laboratories, Inc., South San Francisco, Calif.) and Na^+/K^+-ATPase monoclonal antibodies (Upstate Biotec, Inc., Lake Placid, N.Y.). 1:2000 dilution of Alexa Fluor®488 label (Life Technologies Corp., Carlsbad, Calif.) was used as the secondary antibody. The nucleus of cells was then stained with DAPI (Vector Laboratories, Inc., Burlingame, Calif.). The cell morphology was further stained with 1:400 dilution of Alexa Fluor® 488-conjugated phalloidin (Life Technologies Corp., Carlsbad, Calif.). The slide was then observed under a fluorescence microscope (TCS SP2 AOBS; Leica Microsystems, Welzlar, Germany).

Test [3] has as its system p-Paxillin. Nature of the test: Western blot of cell adhesion associated protein p-Paxillin in corneal endothelial cells. It counts as cell-based, human. Conditions: HCEC; laminin 511-E8 fragments 2.1 nM; three hours after seeding. The procedure: The medium was completely removed from a culture dish culturing human corneal endothelial cells. The cells were washed twice with PBS (−). After washing, phosphate buffer was added, and the mixture was incubated for 5 minute at 37° C. (5% CO2). Subsequently, PBS (−) was removed and TrypLE™ Select (10×) (Life Technologies, A12177-01) was added. The mixture was incubated for 10 minutes at 37° C. (5% CO2). Opti-MEMI (Life Technologies, 31985-070) was then added to collect the cells. After collecting the cells, the cells were centrifuged for 3 minutes at 1200 rpm to make a cell suspension with Opti-MEM I. At this time, a laminin 511-E8 fragment free group was prepared as a control, as well as a group supplemented with laminin 511-E8 fragments so that the final concentration was 2.1 nM. At the same time, mouse IgG and integrin neutralizing antibody were added to the laminin 511-E8 fragment added group to adjust the final concentration to 2 μg/ml. After adjustment, cells were seeded on a 12-well plate at 1×10^5 cells/well and proteins were collected after three hours of seeding. Western blot was used to detect Phospho-FAK (Cell Signaling TECHNOLOGY, 8556S), FAK (Cell Signaling TECHNOLOGY, 32855), and p-Paxillin (Cell Signaling TECHNOLOGY, 2541S). The dilution factor for each antibody was 1:1000. The densitometry was quantified using Image J.

[4] abbreviates: rabbit cornea after transplantation of RCEC with laminin 511-E8 fragments 2.1 nM.

B1: laminin 511-E8 fragment: E8 fragment of human laminin α5β1γ1 (Nippi. Inc., 382-02413) (protein)
chain 1: AAEDAAGQALQQADHTWATVVRQGLVDRAQQLLANSTALEEAMLQEQQRLGLVWAALQGARTQLRDVRAKKDQLEAHIQAAQAMLAMDTDETSKKIAHAKAVAAEAQDTATRVQSQLQAMQENVERWQGQYEGLRGQDLGQAVLDAGHSVSTLEKTLPQLLAKLSILENRGVHNASLALSASIGRVRELIAQARGAASKVKVPMKFNGRSGVQLRTPRDLADLAAYTALKFYLQGPEPEPGQGTEDRFVMYMGSRQATGDYMGVSLRDKKVHWVYQLGEAGPAVLSIDEDIGEQFAAVSLDRTLQFGHMSVTVERQMIQETKGDTVAPGAEGLLNLRPDDFVFYVGGYPSTFTPPPLLRFPGYRGCIEMDTLNEEVVSLYNFERTFQLDTAVDRPCARSKSTGDPWLTDGSYLDGTGFARISFDSQISTTKRFEQELRLVSYSGVLFFLKQQSQFLCLAVQEGSLVLLYDFGAGLKKAVPLQPPPPLTSASKAIQVFLLGGSRKRVLVRVERATVYSVEQDNDLELADAYYLGGVPPDQLPPSLRRLFPTGGSVRGCVKGIKALGKYVDLKRLNTTGVSAGCTADLLVGRAMTFHGHGFLRLALSNVAPLTGNVYSGFGFHSAQDSALLYYRASPDGLCQVSLQQGRVSLQLLRTEVKTQAGFADGAPHYVAFYSNATGVWLYVDDQLQQMKPHRGPPPELQPQPEGPPRLLLGGLPESGTIYNFSGCISNVFVQRLLGPQRVFDLQQNLGSVNVSTGCAPALQAQTPGLGPRGLQATARKASRRSRQPARHPA
chain 2: LQHSAADIARAEMLLEEAKRASKSATDVKVTADMVKEALEEAEKAQVAAEKAIKQADEDIQGTQNLLTSIESETAASEETLFNASQRISELERNVEELKRKAAQNSGEAEYIEKVVYTVKQSAEDVKKTLDGELDEKYKKVENLIAKKTEESADARRKAEMLQNEAKTLLAQANSKLQLLKDLERKYEDNQRYLEDKAQELARLEGEVRSLLKDISQKVAVYSTCL
chain 3: EANDILNNLKDFDRRVNDNKTAAEEALRKIPAINQTITEANEKTREAQQALGSAAADATEAKNKAHEAERIASAVQKNATSTKAEAERTFAEVTDLDNEVNNMLKQLQEAEKELKRKQDDADQDMMMAGMASQAAQEAEINARKAKNSVTSLLSIINDLLEQLGQLDTVDLNKLNEIEGTLNKAKDEMKVSDLDRKVSDLENEAKKQEAAIMDYNRDIEEIMKDIRNLEDIRKTLPSGCFNTPSIEKP
In test [1], B1 yielded an adhering cell density of 1662.8 cells/mm^2. For the same molecule, in test [2] (average on day 7, RCEC injected with laminin 511-E8 fragments 2.1 nM, ultrasound pachymeter), the corneal thickness worked out at 637 μm. In addition, in test [2] (setting [4]), the “N-cadherin (adherence junction) immunostaining” value is “normally expressed”; the “Na+/K+-ATPase (pumping function) immunostaining” value is recorded as “expressed”; the “ZO-1 (tight junction, barrier function) immunostaining” value is “expressed”; the “cell morphology by phalloidin staining” value was “monolayer polygonal morphology”. For the same molecule, in test [2] (rabbit, cultured RCEC injected into anterior chamber with or without laminin 511-E8 fragments 2.1 nM, after one and two weeks), the “cornea appearance in pictures of anterior ocular segment” value is “transparent and healed”. The p-Paxillin entry in test [3] is recorded as “promoted”.
